How the values were obtained:
Type in all cases: in vitro ADME
[1] = Iontophoretic delivery of collagen through intact (untreated) pig ear skin piece, Bradford assay; conditions: untreated 1.5 mm pig ear skin; 15V DC, 0.1 mA, 30 min; collected in 5 min intervals (FIGS. 3 and 4)
Description: Measurements were performed on collagen delivery through a 1.5 mm thick pig ear skin. The skin piece was obtained by slicing with scalpel a 1.5 mm thick section of a pig ear and fixed it over a 2 cm diameter laboratory vial. The vial was filled with a 50 ml solution of 0.05% NaCl in water to contact with the skin piece.
The experiment was performed by measuring the amount of collagen transmitted through the skin piece into the vial's solution by iontophoresis.
(§1) Collagen (100 mg/ml; Sigma) was dissolved in 10 mM sodium phosphate pH 8 containing 150 mM NaCl or in 10 mM sodium phosphate pH 8 containing 150 mM NaCl to which 10 mM glutamic acid solution was added (0.2 ml of glutamic acid were added to 1 ml of collagen to yield pH 4.0), and the glutamic acid solution was incubated at room temperature for 1 hour. Thus, positively charged collagen was driven into the skin by the positive electrode and negatively charged collagen was driven by the negative electrode. The amount of collagen transmitted through the skin was measured by the Bradford assay (Bradford M. M. Anal Biochem. 72, 248-254, 1976).
The experiments were performed at a 15V DC applied voltage and at a current of 0.1 mA for 30 min.
The amount of collagen collected in 5 min intervals was measured by the Bradford reagent.

[2] = Iontophoretic delivery of collagen through pig ear skin treated by chemical microporation, Bradford assay; conditions: Silver Nitrite microporated skin, 15V, 1 h
Description: as §1
Pig ear skin piece was treated by chemical microporation using Silver Nitrite and then iontophoresis of collagen was performed as follows:
Twenty ml reservoir was mounted over the skin piece allowing its wetting (FIG. 5). Iontophoretic transmission experiment using the same solutions as described in Example 1 herein above was performed on each sample. Electrodes were placed in the upper and lower reservoirs. At the end of the experiment the amount of collagen transmitted through the skin was measured by the Bradford assay (Bradford M. M. Anal Biochem. 72, 248-254, 1976). The iontophoresis was performed under the following conditions: 1. Distance between electrodes (upper and lower reservoir)—2 cm;

[3] = Iontophoretic delivery of hyaluronic acid (with BSA) through pig ear skin treated by chemical microporation; conditions: Silver Nitrite microporated skin, iontophoresis as in Example 1
Description: Bovine serum albumin (BSA; Sigma) was dissolved in 10 mM sodium phosphate pH 7.2 containing 0.15 M NaCl to yield BSA concentration of 10 mg/ml. Hyaluronic acid suspension (1 mg; Q-Med) was incubated with 0.1 ml of the BSA solution at 40° C. In addition, 0.1 ml glutamic acid (10 mM) was added to another sample of the hyaluronic acid-BSA solution to yield pH 4.0. Piece of a pig ear skin was exposed to chemical microporation using Silver Nitrite and then iontophoretic delivery of the complex was performed as described in Example 1 herein above.
Hyaluronic acid transmitted through the pig ear was stained by complexation with a copper phtalocyanin dye and measured by the Bradford reagent.

Substance | collagen transmitted through the skin piece by iontophoresis [1] | Transmitted amount ([2]; initial amount 0.1 mg) | Transmitted amount (%) ([2]; initial amount 0.1 mg) | Transmitted amount ([2]; initial amount 0.5 mg) | Transmitted amount (%) ([2]; initial amount 0.5 mg) | Transmitted amount ([2]; initial amount 1.0 mg) | Transmitted amount (%) ([2]; initial amount 1.0 mg) | Transmitted amount ([2]; initial amount 10.0 mg) | Transmitted amount (%) ([2]; initial amount 10.0 mg) | Transmitted amount ([2]; initial amount 20.0 mg) | Transmitted amount (%) ([2]; initial amount 20.0 mg) | Transmitted amount ([3]; initial amount 0.01 mg) | Transmitted amount (%) ([3]; initial amount 0.01 mg) | Transmitted amount ([3]; initial amount 0.05 mg) | Transmitted amount (%) ([3]; initial amount 0.05 mg) | Transmitted amount ([3]; initial amount 0.1 mg) | Transmitted amount (%) ([3]; initial amount 0.1 mg)
Collagen | iontophoretically transmitted through the piece of pig ear skin | 0.04 mg | 40% | 0.3 mg | 60% | 0.48 mg | 48% | 5.6 mg | 56% | 11.0 mg | 55% | – | – | – | – | – | –
Hyaluronic acid | – | – | – | – | – | – | – | – | – | – | – | 0.007 mg | 70% | 0.030 mg | 60% | 0.046 mg | 46%

Source: patent US20090221985A1, “SYSTEM FOR IONTOPHORETIC TRANSDERMAL DELIVERY OF POLYMERIC AGENTS AND METHODS OF USE THEREOF” (priority 2005, published 2009)
